From article PMC10397247

What was measured:
[1] = molecular target: T1, 4H56-bH; experiment: two-hybrid library CCNG1;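 also: natural log of median RNA to DNA barcode read ratio; higher means stronger binding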
T1 chain: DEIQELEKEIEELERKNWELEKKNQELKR

[2] = molecular target: T2, 4H349-bH; experiment: two-hybrid library CCNG1;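 also: natural log of median RNA to DNA barcode read ratio; higher means stronger binding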
T2 chain: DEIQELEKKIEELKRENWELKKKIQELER

[3] = molecular target: T3, 4H2859-bH; experiment: two-hybrid library CCNG1;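 also: natural log of median RNA to DNA barcode read ratio; higher means stronger binding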
T3 chain: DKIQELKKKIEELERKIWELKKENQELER

[4] = molecular target: T4, 4H730-bH; experiment: two-hybrid library CCNG1;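 also: natural log of median RNA to DNA barcode read ratio; higher means stronger binding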
T4 chain: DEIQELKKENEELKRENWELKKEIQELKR

[5] = molecular target: T5, 4H932-bH; experiment: two-hybrid library CCNG1;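 also: natural log of median RNA to DNA barcode read ratio; higher means stronger binding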
T5 chain: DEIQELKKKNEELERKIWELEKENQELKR

[6] = molecular target: T6, 4H2444-bH; experiment: two-hybrid library CCNG1;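 also: natural log of median RNA to DNA barcode read ratio; higher means stronger binding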
T6 chain: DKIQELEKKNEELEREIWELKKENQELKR

[7] = molecular target: T7, 4H264-bH; experiment: two-hybrid library CCNG1
T7 chain: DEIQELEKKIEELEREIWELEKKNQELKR

[8] = molecular target: T8, 4H3041-bH; experiment: two-hybrid library CCNG1
T8 chain: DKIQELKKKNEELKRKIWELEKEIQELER

[9] = molecular target: T9, 4H2760-bH; experiment: two-hybrid library CCNG1
T9 chain: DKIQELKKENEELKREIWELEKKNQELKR

[10] = molecular target: T10, 4H796-bH; experiment: two-hybrid library CCNG1
T10 chain: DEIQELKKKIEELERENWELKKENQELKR

[11] = molecular target: T11, 4H3297-bH; experiment: two-hybrid library CCNG1
T11 chain: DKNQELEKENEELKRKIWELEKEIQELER

[12] = molecular target: T12, 4H949-bH; experiment: two-hybrid library CCNG1
T12 chain: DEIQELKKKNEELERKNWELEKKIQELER

[13] = molecular target: T13, 4H2931-bH; experiment: two-hybrid library CCNG1
T13 chain: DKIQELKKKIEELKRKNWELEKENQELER

[14] = molecular target: T14, 4H3381-bH; experiment: two-hybrid library CCNG1
T14 chain: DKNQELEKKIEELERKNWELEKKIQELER

[15] = molecular target: T15, 4H3364-bH; experiment: two-hybrid library CCNG1
T15 chain: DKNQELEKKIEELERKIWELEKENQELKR

[16] = molecular target: T16, 4H2585-bH; experiment: two-hybrid library CCNG1
T16 chain: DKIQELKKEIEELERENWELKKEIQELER

[17] = molecular target: T17, 4H2518-bH; experiment: two-hybrid library CCNG1
T17 chain: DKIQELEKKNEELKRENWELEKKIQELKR

[18] = molecular target: T18, 4H3961-bA; experiment: two-hybrid library CCNG1
T18 chain: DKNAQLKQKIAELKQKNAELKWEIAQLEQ

[19] = molecular target: T19, 4H470-bA; experiment: two-hybrid library CCNG1
T19 chain: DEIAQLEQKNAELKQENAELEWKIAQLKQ

[20] = molecular target: T20, 4H363-bA; experiment: two-hybrid library CCNG1
T20 chain: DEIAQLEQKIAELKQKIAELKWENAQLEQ

[21] = molecular target: T21, 4H3907-bA; experiment: two-hybrid library CCNG1
T21 chain: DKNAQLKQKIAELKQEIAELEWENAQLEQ

[22] = molecular target: T22, O5; experiment: two-hybrid library CC0; conditions: mean of both orientations
T22 chain: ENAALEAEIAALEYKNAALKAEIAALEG

[23] = molecular target: T23, O9; experiment: two-hybrid library CC0; conditions: mean of both orientations
T23 chain: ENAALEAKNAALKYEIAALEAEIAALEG

[24] = molecular target: T24, O8; experiment: two-hybrid library CC0; conditions: mean of both orientations
T24 chain: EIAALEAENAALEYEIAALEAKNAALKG

[25] = molecular target: T25, O2; experiment: two-hybrid library CC0; conditions: mean of both orientations
T25 chain: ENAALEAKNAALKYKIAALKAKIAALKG

[26] = molecular target: T26, O16; experiment: two-hybrid library CC0; conditions: mean of both orientations
T26 chain: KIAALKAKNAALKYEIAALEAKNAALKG

[27] = molecular target: T27, O4; experiment: two-hybrid library CC0; conditions: mean of both orientations
T27 chain: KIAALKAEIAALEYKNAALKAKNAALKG

[28] = molecular target: T28, O3; experiment: two-hybrid library CC0; conditions: mean of both orientations
T28 chain: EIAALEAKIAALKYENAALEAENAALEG

[29] = molecular target: T29, O7; experiment: two-hybrid library CC0; conditions: mean of both orientations
T29 chain: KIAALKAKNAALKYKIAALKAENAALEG

[30] = molecular target: T30, O15; experiment: two-hybrid library CC0; conditions: mean of both orientations
T30 chain: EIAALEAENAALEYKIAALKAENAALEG

[31] = molecular target: T31, O6; experiment: two-hybrid library CC0; conditions: mean of both orientations
T31 chain: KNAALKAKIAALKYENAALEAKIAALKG

[32] = molecular target: T32, 4H932-bN; experiment: two-hybrid library CCNG1
T32 chain: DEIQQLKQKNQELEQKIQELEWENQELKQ

[33] = molecular target: T33, 4H796-bN; experiment: two-hybrid library CCNG1
T33 chain: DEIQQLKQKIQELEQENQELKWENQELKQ

[34] = molecular target: T34, 4H730-bN; experiment: two-hybrid library CCNG1
T34 chain: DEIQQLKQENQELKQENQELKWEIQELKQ

[35] = molecular target: T35, O13; experiment: two-hybrid library CCNG1
T35 chain: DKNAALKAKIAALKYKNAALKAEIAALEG

[36] = molecular target: T36, P8A-bN; experiment: two-hybrid library CCNG1
T36 chain: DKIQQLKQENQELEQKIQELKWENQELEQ

[37] = molecular target: T37, 4H56-bN; experiment: two-hybrid library CCNG1
T37 chain: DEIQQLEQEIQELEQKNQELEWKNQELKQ

[38] = molecular target: T38, 4H949-bN; experiment: two-hybrid library CCNG1
T38 chain: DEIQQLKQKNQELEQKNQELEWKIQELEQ

[39] = molecular target: T39, 4H3782-bN; experiment: two-hybrid library CCNG1
T39 chain: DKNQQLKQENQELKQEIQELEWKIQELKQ

[40] = molecular target: T40, 4H346-bN; experiment: two-hybrid library CCNG1
T40 chain: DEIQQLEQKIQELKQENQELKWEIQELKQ

[41] = molecular target: T41, 4H855-bN; experiment: two-hybrid library CCNG1
T41 chain: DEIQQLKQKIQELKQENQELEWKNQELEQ

[42] = molecular target: T42, 4H683-bN; experiment: two-hybrid library CCNG1
T42 chain: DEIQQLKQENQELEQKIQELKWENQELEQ

[43] = molecular target: T43, 4H883-bN; experiment: two-hybrid library CCNG1
T43 chain: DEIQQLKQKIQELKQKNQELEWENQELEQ

[44] = molecular target: T44, 4H72-bN; experiment: two-hybrid library CCNG1
T44 chain: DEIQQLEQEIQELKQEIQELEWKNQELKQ

[45] = molecular target: T45, 4H754-bN; experiment: two-hybrid library CCNG1
T45 chain: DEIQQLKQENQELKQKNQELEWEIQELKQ

[46] = molecular target: T46, 4H797-bN; experiment: two-hybrid library CCNG1
T46 chain: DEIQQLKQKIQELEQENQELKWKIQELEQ

[47] = molecular target: T47, 4H575-bN; experiment: two-hybrid library CCNG1
T47 chain: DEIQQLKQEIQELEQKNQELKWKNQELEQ

[48] = molecular target: T48, 4H3855-bN; experiment: two-hybrid library CCNG1
T48 chain: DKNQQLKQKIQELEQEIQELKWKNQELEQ

[49] = molecular target: T49, 4H918-bN; experiment: two-hybrid library CCNG1
T49 chain: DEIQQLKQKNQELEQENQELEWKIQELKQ

[50] = molecular target: T50, 4H967-bN; experiment: two-hybrid library CCNG1
T50 chain: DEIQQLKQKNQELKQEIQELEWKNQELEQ

[51] = molecular target: T51, 4H687-bN; experiment: two-hybrid library CCNG1
T51 chain: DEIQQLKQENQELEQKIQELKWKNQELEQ

[52] = molecular target: T52, 4H4001-bN; experiment: two-hybrid library CCNG1
T52 chain: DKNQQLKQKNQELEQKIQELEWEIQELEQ

[53] = molecular target: T53, 4H3427-bN; experiment: two-hybrid library CCNG1
T53 chain: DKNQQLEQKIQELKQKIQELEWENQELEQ

[54] = molecular target: T54, 4H908-bN; experiment: two-hybrid library CCNG1
T54 chain: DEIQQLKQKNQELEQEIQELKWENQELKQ

[55] = molecular target: T55, 4H968-bN; experiment: two-hybrid library CCNG1
T55 chain: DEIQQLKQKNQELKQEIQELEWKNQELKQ

[56] = molecular target: T56, 4H717-bN; experiment: two-hybrid library CCNG1
T56 chain: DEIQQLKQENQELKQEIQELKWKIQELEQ

[57] = molecular target: T57, 4H607-bN; experiment: two-hybrid library CCNG1
T57 chain: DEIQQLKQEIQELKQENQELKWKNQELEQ

[58] = molecular target: T58, 4H4073-bN; experiment: two-hybrid library CCNG1
T58 chain: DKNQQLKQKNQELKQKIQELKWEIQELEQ

[59] = molecular target: T59, 4H454-bN; experiment: two-hybrid library CCNG1
T59 chain: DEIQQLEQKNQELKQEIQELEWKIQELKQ

[60] = molecular target: T60, 4H717-bA; experiment: two-hybrid library CCNG1
T60 chain: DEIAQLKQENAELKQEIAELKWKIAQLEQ

[61] = molecular target: T61, 4H3926-bN; experiment: two-hybrid library CCNG1
T61 chain: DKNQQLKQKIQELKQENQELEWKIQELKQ

[62] = molecular target: T62, 4H953-bN; experiment: two-hybrid library CCNG1
T62 chain: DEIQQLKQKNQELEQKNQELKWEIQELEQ

[63] = molecular target: T63, 4H568-bN; experiment: two-hybrid library CCNG1
T63 chain: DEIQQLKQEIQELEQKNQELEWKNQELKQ

[64] = molecular target: T64, 4H780-bN; experiment: two-hybrid library CCNG1
T64 chain: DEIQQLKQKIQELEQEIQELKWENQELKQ

[65] = molecular target: T65, 4H457-bN; experiment: two-hybrid library CCNG1
T65 chain: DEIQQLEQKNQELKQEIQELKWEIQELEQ

DKIQELEKKNEELEREIWELKKENQELKR [4H2444-bH]
interaction score [1]: -0.284
interaction score [2]: -0.694
interaction score [3]: 0.771
interaction score [4]: -0.91
interaction score [5]: 0.176
interaction score [6]: 1.48
interaction score [7]: -2.12
interaction score [8]: -0.0348
interaction score [9]: 0.592
interaction score [10]: 0.0566
interaction score [11]: 0.285
interaction score [12]: -0.478
interaction score [13]: 0.0488
interaction score [14]: 0.313
interaction score [15]: 0.375
interaction score [16]: 0.868
interaction score [17]: 0.571

DEIAQLEQKIAELKQKIAELKWENAQLEQ [4H363-bA]
interaction score [18]: 0.154
interaction score [19]: -2.31
interaction score [20]: 1.08
interaction score [21]: 1.32

EIAALEAENAALEYKIAALKAENAALEG [O15]
interaction score [22]: -2.15
interaction score [23]: -2.72
interaction score [24]: -2.41
interaction score [25]: -2.7
interaction score [26]: 1.2
interaction score [27]: -2.54
interaction score [28]: -2.8
interaction score [29]: -1.87
interaction score [30]: -2.64
interaction score [31]: -2.79

DEIQQLEQEIQELEQKNQELEWKNQELKQ [4H56-bN]
interaction score [32]: -0.791
interaction score [33]: 0.00289
interaction score [34]: 0.387
interaction score [35]: -0.5
interaction score [36]: -1.19
interaction score [37]: 0.863
interaction score [38]: -1.76

DKNQQLEQKIQELKQKIQELEWENQELEQ [4H3427-bN]
interaction score [39]: -0.306
interaction score [40]: -2.04
interaction score [41]: -0.804
interaction score [42]: -2.33
interaction score [43]: -1.75
interaction score [44]: -1.54
interaction score [45]: -1.39
interaction score [46]: -0.295
interaction score [47]: -1.57
interaction score [48]: -0.838
interaction score [49]: -1.53
interaction score [50]: -1.07
interaction score [51]: -0.849
interaction score [52]: -1
interaction score [53]: -0.0454
interaction score [35]: -2.44
interaction score [54]: -0.725
interaction score [55]: -1.97
interaction score [56]: -0.704
interaction score [57]: -0.874
interaction score [58]: -1.1
interaction score [59]: -0.734
interaction score [60]: -0.117
interaction score [61]: -1.1
interaction score [62]: -0.667
interaction score [63]: -0.0377
interaction score [64]: -1.3
interaction score [65]: -0.939
